Entries after “also recorded” stand apart in the source; their conditions may differ.
How the values were obtained:
rhFIX = target: T1, rhFIX (Homo sapiens, UniProt P00740, T194A); test: Titration microcalorimetry of rhFIX binding
T1 construct: purchased Genetics Institute
Description: The interactions between rhFIX and SB 249417 BC2 and other humanized constructs were characterized by titration microcalorimetry, which measures binding interactions in solution from the intrinsic heat of binding. Nine injections of 106 uM FIX were made into the calorimeter containing 2 uM mAb SB 249417. Binding was detected in the first 4 injections as exothermic heats. At the last 5 injections the mAb binding sites were saturated with FIX and only background heats of mixing were observed. […] Nonlinear least squares analysis of the data yield the binding affinity.
The data in Table 3 indicate that the affinities of SB 249417, BC2 and its other humanized constructs are within error (a factor of 2) the same.

[1] = system: rat carotid artery thrombosis; test: Rat carotid artery thrombosis model, humanized mAbs, Example 8; assay type: in vivo; details: 3.0 mg/kg i.v. bolus, 60 minutes after onset of injury
Description: In order to evaluate the efficacy of humanized anti-Factor IX antibodies in prevention of arterial thrombosis, the rat carotid artery thrombosis model as described above in Example 3 was used. Baseline parameters were established for carotid blood flow, arterial pressure, heart rate, vessel patency and activated partial thromboplastin time (aPTT). Fifteen minutes thereafter, carotid injury was effected for […]. The parameters were determined 60 minutes after onset of carotid injury. Carotid thrombus was also extracted from the carotid artery and weighed.
All agents were administered intravenously 15 minutes before the onset of carotid injury. The following treatments were examined and compared to the anti-Factor IX mAb BC2.

rat Factor IX = rat Factor IX (Rattus norvegicus, UniProt P16296); test: Species cross-reactivity, rat Factor IX; assay type: binding
[2] = target: T2, Factor IXa in Xase complex (Homo sapiens, UniProt P00740); test: Inhibition of IXa activity in Xase complex (Table I); assay type: biochemical
T2 construct: as well as the active protease, Factor IXa

[3] = system: rat carotid artery thrombosis; test: Rat carotid artery thrombosis model (FeCl3 injury), Example 3; assay type: in vivo
Description: In order to evaluate the efficacy of anti-Factor IX antibodies in prevention of arterial thrombosis, the rat carotid artery thrombosis model as reported by Schumacher et al. in J. Cardio. Pharm. 22, 526-533 (1993) was adapted. This model consists of segmental injury to the carotid endothelium by oxygen radicals generated by FeCl3 solution applied on the surface of the carotid artery.
In brief, rats were anesthetized with pentobarbitone sodium, the jugular vein cannulated for intravenous injections and the left femoral artery cannulated for blood pressure and heart rate monitoring. The carotid artery was isolated by aseptic technique via a surgical incision in the neck and equipped with a magnetic flow probe for blood flow measurement. After a period of stabilization, baseline parameters were established for the following variables: carotid blood flow, arterial pressure, heart rate, activated partial thromboplastin time (aPTT) and prothrombin time (PT). Thereafter, a premeasured Whatman filter paper soaked in 50% FeCl3 solution was placed on the carotid artery for 15 minutes for complete injury of the underlying endothelial cells. After removal of the FeCl3 soaked paper, the experiment was followed to completion over 60 minutes. At the end of the experiment, the carotid thrombus was extracted from the carotid artery and weighed.
All agents were administered 15 minutes prior to the onset of carotid injury. The following treatments were examined and compared to the Factor IX mAb BC2.
1. Heparin: 15, 30, 60 or 120 U/kg bolus, followed by infusion of 0.5, 1, 2 or 4 U/kg/min, respectively over 60 minutes
2. Acetylsalicylic acid (ASA, aspirin): 5 mg/kg bolus
3. Anti-Factor IX mAb BC2: 1, 3 or 6 mg/kg bolus, followed by infusion 0.3, 1, or 2 ug/kg/min, respectively over 60 minutes
4. Heparin: 30U/kg bolus+lU/kg/min+ASA at 5 mg/kg
5. Anti-Factor IX mAb BC2: 1 mg/kg+0.3 ug/kg/min+ASA at 5 mg/kg

Factor IX [4] = target: T3, Factor IX (Homo sapiens, UniProt P00740); test: aPTT clotting time of human plasma, anti-Factor IX mAbs; assay type: biochemical; set-up: Human plasma samples were either freshly drawn and kept on ice or reconstituted; host or cells: human plasma
Description: The effect of increasing concentrations of anti-coagulation factor antibodies on activated partial thromboplastin time (aPTT) of human plasma was determined in a fibrometer (Becton-Dickinson Microbiology Systems, Cockeysville, Md.) using Baxter reference procedure LIB0293-J, 3/93 revision (Baxter Scientific, Edison, N.J.).
Prior to the start of the experiment, 2 to 3 mL of 0.02 M CaCl2 in a 5 mL tube were placed into the heating chamber of the fibrometer. Human plasma samples were either freshly drawn and kept on ice or reconstituted per the manufacturer's recommendation from Hemostasis Reference Plasma (American Diagnostics, Greenwich, Conn.).
Unfractionated heparin from porcine intestinal mucosa (Sigma Chemical, St. Louis, Mo.), low molecular weight heparin from porcine intestinal mucosa (Lovenox®, enoxaparin sodium, Rhone-Poulenc Rorer Pharmaceuticals, Collegeville, Pa.) or mAb anticoagulants were prepared as approximately 50 uM stock solutions and serially diluted directly into the test plasma. A blank containing plasma without anticoagulant was included as a reference.
Two fibroTube® fibrometer cups were filled with 100 ul test plasma or 100 ul test plasma with anticoagulant and 125 ul of actin activated cephaloplastin reagent (Actin reagent, from rabbit brain cephalin in ellagic acid, available from Baxter Scientific), respectively and placed in the fibrometer wells at 37° C.
After one minute, 100 ul of actin reagent was transferred to a plasma-containing cup and the contents mixed several times with a pipette. After a 3 minute incubation, 100 ul of CaCl2, prewarmed at 37° C., was added to the plasma-actin reagent mixture using a Automatic Pipette/Timer-trigger (Becton-Dickinson). The clotting times were noted and the results in FIG. 1 are presented as clotting times as a function of final concentrations of anticoagulant in the total assay volume of 300 ul. The nominal concentration of Factor IX in the assay is 30-40 nM.
Target sequence in this assay (P00740 47-461): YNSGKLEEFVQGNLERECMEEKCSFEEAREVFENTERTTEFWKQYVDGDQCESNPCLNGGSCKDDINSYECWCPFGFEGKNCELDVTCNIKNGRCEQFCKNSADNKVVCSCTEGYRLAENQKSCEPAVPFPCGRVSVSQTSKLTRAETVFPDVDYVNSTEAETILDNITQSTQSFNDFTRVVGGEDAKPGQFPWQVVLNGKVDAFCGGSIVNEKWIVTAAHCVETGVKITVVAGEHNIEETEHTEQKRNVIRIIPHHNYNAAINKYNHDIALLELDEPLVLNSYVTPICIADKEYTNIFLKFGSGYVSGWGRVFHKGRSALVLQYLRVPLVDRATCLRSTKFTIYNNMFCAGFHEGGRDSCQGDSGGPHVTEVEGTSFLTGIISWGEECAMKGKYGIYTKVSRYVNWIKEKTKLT

Factor IXa = target: T4, Factor IXa (Homo sapiens, UniProt P00740); test: Binding to Factor IXa (Table I)
T4 construct: as well as the active protease, Factor IXa

Factor IX [5] = target: T3, Factor IX; test: Binding to Factor IX (in vitro properties, Table I); set-up: Human plasma samples were either freshly drawn and kept on ice or reconstituted; host or cells: human plasma
Description: Approximately two weeks later, 1.0 mL of hybridoma medium was removed from each well and tested for anti-Factor IX antibodies using an ELISA assay as described by Jenny, R. J. et al. in Meth. Enzymol. 222, 400-416 (1993). Briefly, factor IX was immmobilized onto plastic wells of 96-well microtiter plates. Hybridoma supernatants or dilutions of purified antibody were then incubated in the wells. The wells were washed and the presence of antibody-antigen complexes detected with a goat anti-murine immunoglobulin second antibody conjugated to horseradish peroxidase and the chromogenic substrate o-dianisidine.
Target sequence in this assay (P00740 47-461): as above

Factor IX [6] = target: T3, Factor IX; test: Cofactor requirement for mAb activity (Table I)
Target sequence in this assay (P00740 29-461 limits assumed): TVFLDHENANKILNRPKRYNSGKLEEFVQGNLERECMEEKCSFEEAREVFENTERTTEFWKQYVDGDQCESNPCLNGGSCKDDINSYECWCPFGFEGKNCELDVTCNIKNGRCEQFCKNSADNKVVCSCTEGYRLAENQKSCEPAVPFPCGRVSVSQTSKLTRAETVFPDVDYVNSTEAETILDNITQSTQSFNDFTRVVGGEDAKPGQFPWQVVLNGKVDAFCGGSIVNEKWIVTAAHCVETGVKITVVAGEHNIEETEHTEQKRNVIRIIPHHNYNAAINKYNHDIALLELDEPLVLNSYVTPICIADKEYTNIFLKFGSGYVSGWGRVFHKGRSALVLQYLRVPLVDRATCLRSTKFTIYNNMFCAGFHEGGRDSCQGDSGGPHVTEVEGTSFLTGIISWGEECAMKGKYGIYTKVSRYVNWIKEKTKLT

[7] = system: Cynomologous monkey Factor IX; test: Species cross-reactivity, monkey Factor IX; assay type: binding
[8] = target: Factor IX to IXa conversion (Homo sapiens, UniProt P00740); test: Inhibition of Factor IX to IXa conversion (Table I); assay type: biochemical
[9] = target: T5, Recombinant human Factor IX (rhFIX) (Homo sapiens, UniProt P00740, T194A); test: BIAcore kinetics of Factor IX binding to mAb on protein A surface; details: rhFIX 49 nM, 5 mM Ca2+, biosensor
T5 construct: purchased Genetics Institute
Description: The kinetics of Factor IX binding to SB 249417 was assessed by BIAcore analysis with antibody bound to an immobilized protein A surface. Recombinant human Factor IX (rhFIX, Genetics Institute) at 49 nM was used and measurements performed in the presence of 5 mM Ca^2+. The interaction was characterized by rapid association, kass 2.0×10^5 M^−1 s^−1 and relatively slow off-rate, kdiss=4.1×10^−4 s^−1.

Factor IX gla domain = test: Epitope mapping of BC2 with Factor IX/Factor VII chimeric constructs; assay type: binding
Description: A library of chimeric constructs composed of sequences of Factor IX spliced into the framework of the homologous protein Factor VII was constructed and used to map the epitope for the Factor IX BC2 mAb. See Cheung et al., Thromb. Res. 80, 419-427 (1995). Binding was measured using a BiaCore 2000 surface plasmon resonance device. The BC2 antibody was coupled directly to the chip using the NHS/EDC reaction. Binding was measured by 2 min of contact time at 20 uL/min with 200 nM of each of the given constructs in 25 mM MOPS, pH 7.4, 0.15 M NaCl, 5 mM CaCl2. Dissociation was monitored for 3 min using the same buffer with no protein. No binding was detected to the wild type construct in the presence of 50 mM EDTA.

T5 sequence (P00740 47-461 T194A): as the sequence (P00740 47-461) above, with T148A counted along it
Chain of rat Factor IX (P16296 40-462): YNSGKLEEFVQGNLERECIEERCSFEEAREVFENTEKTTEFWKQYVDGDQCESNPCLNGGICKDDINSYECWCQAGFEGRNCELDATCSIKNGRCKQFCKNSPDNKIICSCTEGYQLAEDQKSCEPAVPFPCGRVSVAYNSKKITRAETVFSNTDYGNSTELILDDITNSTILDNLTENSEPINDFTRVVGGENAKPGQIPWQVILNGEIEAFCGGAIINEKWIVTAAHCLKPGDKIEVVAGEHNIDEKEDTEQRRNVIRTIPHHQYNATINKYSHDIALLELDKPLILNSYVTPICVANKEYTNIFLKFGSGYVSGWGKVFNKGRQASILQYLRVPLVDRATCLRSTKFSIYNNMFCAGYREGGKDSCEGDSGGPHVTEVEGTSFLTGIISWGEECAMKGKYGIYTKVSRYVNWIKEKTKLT
T4 sequence (P00740 47-191 limits assumed): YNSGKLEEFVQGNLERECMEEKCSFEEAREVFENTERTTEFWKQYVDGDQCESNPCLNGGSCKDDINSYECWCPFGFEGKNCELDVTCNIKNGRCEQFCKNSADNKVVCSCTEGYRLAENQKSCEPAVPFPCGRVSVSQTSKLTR
T4 sequence (P00740 227-461 limits assumed): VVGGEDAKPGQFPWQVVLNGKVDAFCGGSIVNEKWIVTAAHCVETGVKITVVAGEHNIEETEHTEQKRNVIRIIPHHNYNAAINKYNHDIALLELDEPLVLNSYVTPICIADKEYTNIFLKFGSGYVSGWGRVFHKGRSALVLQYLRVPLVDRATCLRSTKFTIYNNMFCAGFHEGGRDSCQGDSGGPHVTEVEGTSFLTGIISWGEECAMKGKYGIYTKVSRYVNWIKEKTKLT
T2 sequence (P00740 47-191 limits assumed): as the sequence (P00740 47-191 limits assumed) above
T2 sequence (P00740 227-461 limits assumed): as the sequence (P00740 227-461 limits assumed) above
T1 sequence (P00740 47-461 T194A): as the sequence (P00740 47-461) above, with T148A counted along it
Chain of Factor IX to IXa conversion (P00740 29-461 limits assumed): as the sequence (P00740 29-461 limits assumed) above

B1: SB 249417: humanized anti-Factor IX mAb, heavy chain F9HZHC 1-1 (SEQ ID NO: 52), light chain F9HZLC 2-0 (SEQ ID NO: 74) (antibody, V domains shown)
VH: QVQLVQSGSELKKPGASVKVSCKASGYTFTNYGMNWVRQAPGQGLKWMGWINTRNGKSTYVDDFKGRFVFSLDSSVSTAYLQISSLKADDTAVYYCTREGNMDGYFPFTYWGQGTLVTVSS
VL: QIVLTQSPSSLSASVGDRVTITCRASSSVNYMHWYQQKPGKAPKPWIYATSNLASGVPSRFSGSGSGTDYTFTISSLQPEDIATYYCQQWSINPRTFGQGTKVEIKR
Stoichiometry of Factor IX Binding, Isothermal Titration Calorimetry (rhFIX): 1.5 moles Factor IX: 1 mole mAb | effect on aPTT (FIG. 8) [1]: modest effect

B2: BC2: murine monoclonal antibody directed against human Factor IX and/or Factor IXa, isotype IgG2a (antibody, V domains shown)
VH: QIQLVQSGPELKKPGETVKISCKASGYTFTNYGMNWVKQAPGKGLKWMGWINTRNGKSTYVDDFKGRFAFSLESSASTANLQIDNLKDEDTATYFCTREGNMDGYFPFTYWGQGTLVTVSA
VL: QIVLSQSPAILSASPGEKVTMTCRASSSVNYMHWYQQKPGSSPKPWIYATSNLASGVPARFSGSGSGTSYSLTISRVEAEDAATYYCQQWSINPRTFGGGTKLEIKR
Species cross-reactivity: rat Factor IX (rat Factor IX): cross-reacted; also recorded: species cross-reactivity with rat | Inhibits IXa activity in Xase complex [2]: inhibits Factor IXa activity and yes | effect on prothrombin time (PT) at 60 minutes (FIG. 5) [3]: not by any of the Factor IX mAb doses | effect on thrombus weight (FIG. 7) [3]: dose-dependently reduced | effect on carotid artery occlusion ([3]; Factor IX mAb at the two higher doses (3, 6 mg/kg bolus + infusion)): completely blocked | effect on thrombus formation ([3]; high dose of Factor IX mAb): virtually prevented completely | increase in clotting time (aPTT) ([3]; highest dose of Factor IX mAb (6 mg/kg bolus + 2 ug/kg/min)): ≤ 3 fold | effect on carotid artery occlusion (patency) ([3]; lower dose of Factor IX mAb alone (1 mg/kg + 0.3 ug/kg/min)): largely failed to secure patency | effect on aPTT at 60 minutes (FIG. 4) ([3]; regimens of b146-b150, given 15 minutes before injury): modest effect | [formula] (row head is a formula not shown) (Factor IX [4]; Table I, the values are: max aPTT as % of normal aPTT): 350% | aPTT at saturating concentrations of mAb (Factor IX [4]; normal human plasma, FIG. 1): about 90 sec | increase of the aPTT at saturating concentrations (Factor IX [4]; normal human plasma, FIG. 1): 3.5 fold | maximal value of clot time in the aPTT assay (Factor IX [4]; self-limiting effect, summary description): about 100 seconds | Binds Factor IXa (Factor IXa): binds Factor IXa and yes | Binds Factor IX (Factor IX [5]): yes | Cofactor requirement (Factor IX [6]): Divalent metal cofactors are required for activity; also recorded: Ca^2+ > Mn^2+ | Species cross-reactivity: monkey Factor IX [7]: cross-react | Inhibits IX to IXa conversion [8]: yes | kass [9]: 480000 M⁻¹ s⁻¹ | kdiss [9]: 0.00091 s⁻¹ | epitope (Factor IX gla domain): residues 3-11 of the Factor IX gla domain

Reference: patent US20020146411A1, “Anticoagulant agents useful in treatment of thrombosis” (SmithKline Beecham Corporation, priority 1996, published 2002)
